For one experiment, the system named is HeLa cells. Put plainly: AIF nuclear translocation in HeLa cells after MNNG. Format: cell-based. The following applies: MNNG 50 μM for 15 minutes. The method, then:
Unless otherwise set forth herein, immunocytochemistry, immunohistochemistry and confocal microscopy as referenced in the examples entailed the following materials and procedures. For immunocytochemistry, cells were fixed 2 hours after treatment with 4% paraformaldehyde, permeabilized with 0.05% Triton X-100, and blocked with 3% bovine serum albumin in PBS. AIF was visualized by 2 μg/ml mouse anti-Flag/Cyt AffiniPure Donkey Anti-Mouse IgG or rabbit anti-AIF/Cy3 AffiniPure Donkey Anti-Rabbit IgG. Immunohistochemistry was performed using the antibody against Flag. Immunofluorescence analysis thereafter was carried out by using a LSM510 confocal laser scanning microscope (obtained from Carl Zeiss Microlmaging) as described by H. Wang et al. (J. Neurosci, 2004).

In another experiment the test system is Hq cortical neurons. Put plainly: NMDA excitotoxicity in Hq cortical neurons. It is filed as cell-based, mouse. The following applies: DPQ (30 μM) or zVAD (100 μM) in addition to NMDA. On the procedure: HQ cortical neuron cells were transduced with lentivirus carrying WT-AIF-Flag or Pbm-AIF-Flag. Non-transduced neurons and GFP-lentivirus infected cells were used as negative controls. […] In those photos, blue indicates Hoechst 33342 staining and red indicates propidium iodide staining. […] The cytotoxicity in these Hq cortical neurons was measured at 24 hours, 36 hours, and 48 hours after NMDA (500 μM for 5 min) treatment, and the data for this is reported in the graph of FIG. 18B.

In a further experiment the test system is Hq MEFs. The experiment is described as follows: MNNG cytotoxicity in Hq MEFs. It is filed as cell-based, mouse. The following applies: zVAD 100 μM, 24 hours after MNNG 500 μM for 15 min. The method, then: Further, the effect WT-AIF-Flag or Pbm-AIF-Flag on Hq MEF cell viability was determined 24 hours after MNNG (500 μM for 15 min) cytotoxicity with and without zVAD (100 μM), and the results of three trials is reported in FIG. 17B.

For experiment [1], the system named is PAR. Put plainly: PAR overlay assay of full length AIF and mutants. It is filed as binding. On the procedure:
(§1) The following experiment was performed to confirm whether AIF in fact binds to PAR. Applicants performed 3 trials of an overlay assay on recombinant AIF with affinity-purified biotin-labeled PAR. Histone H3, which binds to PAR with high affinity, was included as a positive control and bovine serum albumin (“BSA”) was included as a negative control, as described by P. Chang et al. (Nat Cell Bio, 2005). FIG. 1B depicts three photos side by side for gels representative of all trials for these overlay assays. […] Thus, Applicants took the results of these two tests as confirming that AIF binds to PAR in vitro.
To further study these potential AIF PBMs, Applicants performed the following experiment to examine the effect of mutating AIFm amino acids 222-244, 441-463, and/or 567-592 to poly-alanine on the ability of AIF to bind PAR. FIG. 6 comprises black and white photographs of representative gels from an overlay assay of His-tagged WT-AIF, AIFm222-244, AIFm441-463, AIFm567-592, AIFΔ567-592 (i.e., a mutant lacking AAs 567-592), and AIF(K254A, R264A) (i.e., mutating K to A at 254 and R to A at 264) mutants with ^32P-labeled automodified PARP-1 (equivalent to 100 nM of PAR), purified ^32P-labeled PAR (100 nM), or purified ^32P-labeled PAR with either a 100-fold excess of DNA or cold PAR. […] The same can be assumed to corresponding sequences for other species, such as those identified in FIG. 4.
Additionally, to exclude the possibility that PAR polymer is binding to AIF through its DNA-binding domain, PAR polymer binding was assessed against the full length AIF DNA-binding mutant AIFK254A;R264A as described by H Cande et al. (Nat Struct Biol, 2002).
Finally, Human AIF (“AIFH”) is known to bind to DNA through a groove between the FAD-binding domain (“D1”) and C-terminal domain (“D3”). A mutant form of AIFH in which lysine 255 is substituted with alanine and arginine 265 is substituted with alanine (AIFK255A;R265A) completely lacks DNA binding. To investigate the possible contribution of the AIF DNA-binding domain to PAR binding, Applicants assessed PAR binding to AIFm mutated in the same way (AIFK254A;R264A). […] Thus, Applicants concluded that the AIF PAR-binding site is separable from its DNA-binding site, meaning that such binding could be inhibited by genetically modifying AIF without impacting the natural DNA binding capabilities of AIF or potentially by otherwise inhibiting the binding action of the PBMs.

Experiment [2] concerns PAR. The experiment is described as follows: EMSA with 32P-labeled PAR. It is filed as binding. On the procedure: as §1
(§2) To further ascertain whether full length recombinant AIF-Tm produced above (henceforth named “Pbm-AIF”) binds PAR, Applicants performed three iterations of an EMSA assay for PAR binding with recombinant WT-AIF and Pbm-AIF, using histone H3 as a control. […] FIG. 9 comprises a black and white photograph of EMSA gels showing representative results for WT-AIF and Pbm-AIF using ^32P-labeled PAR.
In general terms: In EMSA bound probe runs differently from free probe, usually more slowly.

Experiment [3] has as its system PAR. Put plainly: in vitro PAR-binding assay, twenty percent TBE-PAGE analysis. On the procedure:
To begin, 300 nM of purified WT-AIF or Pbm-AIF (i.e., AIF mutated in its PAR binding region) were incubated with ^32P-labeled PAR for 10 minutes at room temperature. Thereafter, samples were incubated with AIF antibody-linked protein G slurry for 1 hour. Samples were washed two times with PBS and boiled with 1× Laemmli sample buffer (obtained from BIO-RAD). Each soluble fraction was resolved in 20% TBE-PAGE. The gel was heat dried and developed using the Typhoon 9400 Imager.
as §2

Experiment [4] deals with PAR. Put plainly: biotin-labeled PAR pull-down assay. Format: binding. The settings on record: biotin-labeled PAR-conjugated NeutrAvidin beads. The source says: To confirm that Pbm-AIF fails to bind PAR, Applicants also performed four trials of biotin-labeled PAR pull-down assays on WT-AIF, Pbm-AIF, and histone H3. For this experiment, the pull-down assay used biotin-labeled PAR-conjugated NeutrAvidin beads. FIG. 10A comprises a composite black and white photograph depicting typical gels obtained in this pull-down assay.

A further experiment concerns isolated HeLa nuclei. The experiment is described as follows: nuclear shrinkage assay. Format: biochemical. The settings on record: non-tagged proteins incubated with isolated HeLa nuclei. The method, then:
Nuclei were obtained by purification from HeLa cells as described previously by A. Mandir et al. (J Neurosci, 2000). For the assay, purified nuclei were incubated with recombinant WT-AIF or Pbm-AIF (20 ng/ml) in the presence of ATP (2 mM), phosphocreatine (20 mM) and creatine kinase (50 μg/ml) for 90 minutes at 37° C. Nuclei were stained by DAPI and examined by fluorescence microscopy.
FIG. 11D comprises an array of color photographs showing the result of fluorescence microscopy for various cultures, as labeled in the figure, following DAPI staining. […] FIG. 11E is a chart reporting the result of a quantification of nuclei treated by WT-AIF, Pbm-AIF, and control (“CTL”), using Caspase 3 as a positive control.

Experiment [5] concerns Hq mouse cortical neuronal cultures. The experiment is described as follows: AIF translocation to the nucleus in Hq cortical neurons. Format: cell-based. The settings on record: 100 nM staurosporine, 24 hours. On the procedure: Unless otherwise set forth herein, immunocytochemistry, immunohistochemistry and confocal microscopy as referenced in the examples entailed the following materials and procedures. […] AIF was visualized by 2 μg/ml mouse anti-Flag/Cyt AffiniPure Donkey Anti-Mouse IgG or rabbit anti-AIF/Cy3 AffiniPure Donkey Anti-Rabbit IgG. Immunohistochemistry was performed using the antibody against Flag. Immunofluorescence analysis thereafter was carried out by using a LSM510 confocal laser scanning microscope (obtained from Carl Zeiss Microlmaging) as described by H. Wang et al. (J. Neurosci, 2004).
Again, AIF translocation to the nucleus was monitored two hours after NMDA (500 μM, 5 minutes) treatment sufficient to initiate parthanatos in wild-type cells.

A further experiment concerns isolated mitochondria. The experiment is described as follows: AIF binding to isolated mitochondria. The method, then:
One commonly accepted estimate is that approximately 20%-30% of AIF resides on the cytosolic side of the outer membrane of mitochondria, where it is poised to be rapidly released by PAR following PARP-1 activation. Applicants thus wanted to perform tests of AIF binding to mitochondria determine how readily purified WT-AIF and Pbm-AIF bind to mitochondria in a time- and concentration-dependent manner. Specifically, recombinant WT-AIF (2.5 ng/μl) and Pbm-AIF (2.5 ng/μl) were incubated with isolated mitochondria (200 μg/ml) for 1 minute, 5 minutes, 10 minutes, 15 minutes, 20 minutes or 30 minutes. […] The results of this portion of the experiment is provided by the graph of FIG. 15B.
To investigate the mechanism underlying mitochondrial AIF release following PARP-1 activation, Applicants incubated isolated mitochondria with purified non-tagged forms of AIF in the presence or absence of PAR and followed this by centrifugation to remove the mitochondria. Detection of AIF remaining in the supernatant was thereafter performed through immunoblot analysis.
The supernatant collected in the experiments of Example 16 were also analyzed for the presence of Tom20 and cyclochrome c.

This note sets out measurements from patent US20120122765A1, “COMPOUNDS AND RELATED METHODS FOR MANIPULATING PARP-1-DEPENDENT CELL DEATH” (priority 2010, published 2012).

Where a SMILES comes first, the peptide text is derived from it. The star is where a group is joined. Cbz = O=C(OCc1ccccc1)*; CH2F = FC*

`O=C1NCCc2c(OCCCCN3CCCCC3)cccc21` [DPQ, 3,4-Dihydro-5[4-(1-piperindinyl)butoxy]-1(2H)-isoquinoline, reference compound]: in the experiment on HeLa cells, the “effect on nuclear translocation of AIF after MNNG” value was “prevented the nuclear translocation of both endogenous AIF and WT-AIF-Flag”. In addition, the “effect on NMDA-induced cortical neuron death” value in the experiment on Hq cortical neurons is given as “inhibited NMDA-induced cortical neuron death”.
`CC(NC(=O)C(NC(=O)OCc1ccccc1)C(C)C)C(=O)NC(CC(=O)O)C(=O)CF` (stereo not drawn) [zVAD, reference compound] (Cbz-Val-Ala-Asp-CH2F; configuration not given here): in the experiment on Hq MEFs, the “effect on MNNG-induced cell death” value is recorded as “failed to influence MNNG-induced cell death in MEFs”. Besides, the “effect on NMDA-induced cortical neuron death” value in the experiment on Hq cortical neurons is “did not”.

B1: Pbm-AIF: full length mouse AIF mutant R588A;K589A;K592A (PAR binding motif mutant) (protein)
chain: MFRCGGLAGAFKQKLVPLVRTVYVQRPKQRNRLPGNLFQQWRVPLELQMARQMASSGSSGGKMDNSVLVLIVGLSTIGAGAYAYKTIKEDQKRYNERVMGLGLSPEEKQRRAIASATEGGSVPQIRAPSHVPFLLIGGGTAAFAAARSIRARDPGARVLIVSEDPELPYMRPPLSKELWFSDDPNVTKTLQFRQWNGKERSIYFQPPSFYVSAQDLPNIENGGVAVLTGKKVVHLDVRGNMVKLNDGSQITFEKCLIATGGTPRSLSAIDRAGAEVKSRTTLFRKIGDFRALEKISREVKSITVIGGGFLGSELACALGRKSQASGIEVIQLFPEKGNMGKILPQYLSNWTMEKVKREGVKVMPNAIVQSVGVSGGRLLIKLKDGRKVETDHIVTAVGLEPNVELAKTGGLEIDSDFGGFRVNAELQARSNIWVAGDAACFYDIKLGRRRVEHHDHAVVSGRLAGENMTGAAKPYWHQSMFWSDLGPDVGYEAIGLVDSSLPTVGVFAKATAQDNPKSATEQSGTGIRSESETESEASEITIPPSAPAVPQVPVEGEDYGKGVIFYLRDKVVVGIVLWNVFNRMPIAAAIIADGEQHEDLNEVAKLFNIHED
In the case of B1, the PAR binding result with PAR [1] (His-tagged proteins, purified PAR, normalized to WT-AIF, result in words) is “nearly abolished PAR-binding”. Besides, the “reduced PAR binding” value in the experiment with PAR [1] (radioactive signal normalized to WT-AIF) was determined as 90%. For the same molecule, the PAR mobility shift entry in the experiment with PAR [2] is listed as “no effect on PAR mobility”. In the experiment on PAR [3], the “binding to 32P-PAR” value is reported as “failed to bind to ^32P-PAR”. The “pull-down with biotin-labeled PAR” value with PAR [4] is listed as “only a barely detectable amount”. In addition, the “chromatin condensation and nuclear shrinkage” value with isolated HeLa nuclei was “comparable levels of chromatin condensation and nuclear shrinkage”. Further, the “translocation to the nucleus after staurosporine” value in experiment [5] was “translocated to the nucleus”. The “binding to mitochondria versus concentration” value in the experiment on isolated mitochondria (0.1 ng/μl to 120.5 ng/μl, 30 minutes, room temperature) is “bound to the mitochondria in a concentration dependent manner”. Also, the “binding percentage to mitochondria over time” value in the experiment with isolated mitochondria (2.5 ng/μl, mitochondria 200 μg/ml, after 5 minutes) was “equivalent”. Besides, the results for the “effect of PAR on association with mitochondria” value with isolated mitochondria (5 nM PAR), in the experiment with isolated mitochondria (50 nM PAR) and in the experiment on isolated mitochondria (100 nM PAR) were “failed to affect association”, “barely detectable effects” and “partially reduced mitochondrial binding”, respectively. Moreover, the “depletion from the supernatant by mitochondria” value with isolated mitochondria (untreated mitochondria, absence of PAR) is on record as “effectively depleted”.
